Test system: peptide library, one residue held at a place counted from the S/T acceptor
Assay: relative phosphorylation of the sub-library (ratio to the mean residue at this position); higher = residue favoured
Conditions: human
Summary of the method: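 Human or orthologue kinase constructs, purified and recombinant, were incubated under kinase-specific conditions in 384-well plates with biotinylated degenerate peptide sub-libraries. Each sub-library fixed one residue at one position around a central Ser/Thr. Incubations lasted 90 min with peptides at 50 μM and 50 μM ATP spiked with γ-32P-ATP, after which spots on streptavidin membranes were phosphorimaged and quantified by densitometry. Relative sub-library phosphorylation is a ratio to the mean residue at that position.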

Chain of IRAK1, construct: aa186-530 (P51617 186-530, looked up): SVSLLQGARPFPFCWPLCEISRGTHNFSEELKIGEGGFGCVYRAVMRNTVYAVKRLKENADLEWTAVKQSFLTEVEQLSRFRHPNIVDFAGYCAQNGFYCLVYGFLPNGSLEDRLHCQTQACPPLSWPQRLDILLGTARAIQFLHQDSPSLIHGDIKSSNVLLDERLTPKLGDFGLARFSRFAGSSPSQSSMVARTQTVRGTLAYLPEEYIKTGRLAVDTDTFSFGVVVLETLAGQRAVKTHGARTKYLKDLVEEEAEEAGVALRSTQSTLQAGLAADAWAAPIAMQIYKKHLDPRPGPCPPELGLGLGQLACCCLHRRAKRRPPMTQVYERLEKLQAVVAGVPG

IRAK1, construct: aa186-530 (from UniProt P51617)
relative phosphorylation
Conditions	at +1	at +2	at +3	at +4	at -1	at -2	at -3	at -4	at -5
A fixed	0.864	0.732	0.528	0.839	0.549	1.22	1.05	0.838	0.984
D fixed	0.289	0.355	0.361	0.391	0.359	0.433	0.405	0.63	0.557
E fixed	0.435	1.03	0.316	0.501	0.236	0.423	0.57	0.668	0.629
F fixed	1.34	0.929	1.71	0.843	1.69	1.07	1.02	1.17	1.09
G fixed	1.28	0.501	0.55	0.766	0.4	0.801	0.874	0.846	1.01
H fixed	0.703	1.2	0.889	1.13	1.34	1.12	1.55	1.08	1.3
I fixed	2.14	2.49	1.84	1.27	0.864	1.08	1.19	1.29	1.38
K fixed	0.885	0.442	0.719	1.32	0.789	0.64	1.02	1.06	1.01
L fixed	1.25	0.867	1.22	1.13	0.847	1.67	1.11	1.09	0.973
M fixed	1.59	1.07	1.56	1.17	1.02	1.78	1.43	1.08	1.12
N fixed	0.604	0.781	0.558	0.806	0.776	1.47	0.918	1.33	0.973
P fixed	0.159	0.336	0.221	0.969	0.287	0.495	0.464	0.559	0.696
Q fixed	1.08	0.734	0.567	0.766	0.527	0.957	0.954	0.813	0.845
R fixed	1.05	0.633	1.04	1.75	1.53	1.16	1.5	0.988	1.29
V fixed	1.69	1.95	1.07	0.745	0.863	0.788	0.849	1.16	1.07
W fixed	0.854	1.37	2.17	1.54	2.85	0.745	0.9	1.11	0.809
Y fixed	0.799	1.58	1.69	1.06	2.08	1.13	1.21	1.27	1.27
pThr fixed	0.544	0.539	0.403	0.473	0.484	0.857	0.765	1.09	0.722
pTyr fixed	0.357	0.562	0.482	0.464	0.522	0.756	1.19	0.831	0.843

Reference: the supplement of paper PMC9876800
